Laboratory results reported in paper PMC6625990, “Structural underpinnings of Ric8A function as a G-protein α-subunit chaperone and guanine-nucleotide exchange factor” (Nature Communications, 2019).

B1: bovine Ric8A1–492 [bovine] / Gαt333–350 [modified: biotin on the N-terminus (in the BLI assays); biotin on the N-terminus (in the BLI assays)] [not stated] (parent)
chain 1: MEPRAVADALETGEEDVVMEALRAYNRENSQSFTFDDAQQEDRKRLAKLLVSVLEQGLPPSRRVIWLQSIRILSRDRSCLDSFTSRRSLQALACYAGISASQGSVPEPLNMDVVLESLKCLCNLVLSSPVAQALAAEAGLVVRLAERVGLCRQSSFPHDVQFFDLRLLFLLTALRTDVRQQLFQELQGVRLLTRALELTLGMTEGERHPELLPPQETERAMEILKVLFNITFDSIKREVDEEDAALYRHLGTLLRHCVMLAAAGDRTEELHGHAVNLLGNLPVKCLDVLLTLEPHEGSLEFLGVNMDVIRVLLSFMEKRLHQTHRLKESVAPVLSVLTECARMHRPARKFLKAQVLPPLRDVRTRPEVGELLRNKLVRLMTHLDTDVKRVAAEFLFVLCSESVPRFIKYTGYGNAAGLLAARGLMAGGRPEGQYSEDEDTDTDEYKEAKASINPVTGRVEEKPPNPMEGMTEEQKEHEAMKLVNMFDKLSRH
chain 2: DAVTDIIIKENLKDCGLF

Experiments:
[1] = variants of: B1; assay: BLI (steady-state); details: with Gαt333–350 [modified: biotin on the N-terminus (in the BLI assays)
[2] = variants of: B1; assay: BLI (steady-state binding curve); details: with Gαt333–350 [modified: biotin on the N-terminus (in the BLI assays), biotinylated Gαt333–350 coupled to a streptavidin biosensor

Question: For chain 1 MEPRAVADALETGEEDVVMEALRAYNRENSQSFTFDDAQQEDRKRLAKLLVSVLEQGLPPSRRVIWLQSIRILSRDRSCLDSFTSRRSLQALACYAGISASQGSVPEPLNMDVVLESLKCLCNLVLSSPVAQALAAEAGLVVRLAERVGLCRQSSFPHDVQFFDLRLLFLLTWLRTDVRQQLFQELQGVRLLTRALELTLGMTEGERHPELLPPQETERAMEILKVLFNITFDSIKREVDEEDAALYRHLGTLLRHCVMLAAAGDRTEELHGHAVNLLGNLPVKCLDVLLTLEPHEGSLEFLGVNMDVIRVLLSFMEKRLHQTHRLKESVAPVLSVLTECARMHRPARKFLKAQVLPPLRDVRTRPEVGELLRNKLVRLMTHLDTDVKRVAAEFLFVLCSESVPRFIKYTGYGNAAGLLAARGLMAGGRPEGQYSEDEDTDTDEYKEAKASINPVTGRVEEKPPNPMEGMTEEQKEHEAMKLVNMFDKLSRH [chain 1 A173W], which Kd [1] is on record?
Answer: > 10 µM

Question: What about the Kd [2] of the same variant?
Answer: > 10 µM

Question: With chain 1 MEPRAVADALETGEEDVVMEALRAYNRENSQSFTFDDAQQEDRKRLAKLLVSVLEQGLPPSRRVIWLQSIRILSRDRSCLDSFTSRRSLQALACYAGISASQGSVPEPLNMDVVLESLKCLCNLVLSSPVAQALAAEAGLVVRLAERVGLCRQSSFPHDVQFFDLRLLRLLTALRTDVRQQLFQELQGVRLLTRALELTLGMTEGERHPELLPPQETERAMEILKVLFNITFDSIKREVDEEDAALYRHLGTLLRHCVMLAAAGDRTEELHGHAVNLLGNLPVKCLDVLLTLEPHEGSLEFLGVNMDVIRVLLSFMEKRLHQTHRLKESVAPVLSVLTECARMHRPARKFLKAQVLPPLRDVRTRPEVGELLRNKLVRLMTHLDTDVKRVAAEFLFVLCSESVPRFIKYTGYGNAAGLLAARGLMAGGRPEGQYSEDEDTDTDEYKEAKASINPVTGRVEEKPPNPMEGMTEEQKEHEAMKLVNMFDKLSRH [chain 1 F169R] as the variant, how does the Kd [1] read?
Answer: 1.8 µM

Question: What about the Kd [2] of the same variant?
Answer: 1.9 µM
